{"source": "paper PMC6048764", "about": "“Myricetin antagonizes semen-derived enhancer of viral infection (SEVI) formation and influences its infection-enhancing activity” (Retrovirology, 2018)", "parents": {"B1": {"name": "wild-type PAP257–273 [human] / itself (parent)", "chain": "RLQGGVLVNEILNHMKR"}}, "data": [{"variants_of": "B1", "experiment": "ThT assay (amyloid fibril formation, self-assembly)", "details": "with itself; peptide 3 mg/ml, agitated at 1400 rpm at 37 °C for 48 h; parent: 5.5e+03; read off a plot", "values": [{"variant": "RLQGGVLVNEIANHMKR", "note": "[chain 1 L12A]", "response": 11000}, {"variant": "RAQGGVLVNEILNHMKR", "note": "[chain 1 L2A]", "response": 7800}, {"variant": "RLQGGVLVNEILNHAKR", "note": "[chain 1 M15A]", "response": 1400}, {"variant": "RLQGGVLVNEILNHMKA", "note": "[chain 1 R17A]", "response": 8300}, {"variant": "RLQGGVLANEILNHMKR", "note": "[chain 1 V8A]", "response": 200}, {"variant": "RLAGGVLVNEILNHMKR", "note": "[chain 1 Q3A]", "response": 5100}]}]}
